Consider one sequence from publication PMC4538796.

Data set [1] has as its target GAGAH (GAGA zinc finger/AT-Hook conjugate) (UniProt Q08605). The experiment in a line: fluorescence anisotropy. The settings on record: Zn2+, Anisotropy (given for GAGAH): 20 mM Tris-HCl pH 7.5, 100 mM NaCl, 0.02 mM ZnCl2, 20 C, 25 nM TMR-DNA, EMSA: 75 nM dsDNA, rt (GAGAH), 10% native PAGE, 0.5x TBE …. On the technique in general: In fluorescence polarisation assays a small probe gives low polarisation when free and higher when bound to something large.
UniProt Q08605, sequence (Q08605 other isoform, or with tags, fused parts or gaps, change not shown): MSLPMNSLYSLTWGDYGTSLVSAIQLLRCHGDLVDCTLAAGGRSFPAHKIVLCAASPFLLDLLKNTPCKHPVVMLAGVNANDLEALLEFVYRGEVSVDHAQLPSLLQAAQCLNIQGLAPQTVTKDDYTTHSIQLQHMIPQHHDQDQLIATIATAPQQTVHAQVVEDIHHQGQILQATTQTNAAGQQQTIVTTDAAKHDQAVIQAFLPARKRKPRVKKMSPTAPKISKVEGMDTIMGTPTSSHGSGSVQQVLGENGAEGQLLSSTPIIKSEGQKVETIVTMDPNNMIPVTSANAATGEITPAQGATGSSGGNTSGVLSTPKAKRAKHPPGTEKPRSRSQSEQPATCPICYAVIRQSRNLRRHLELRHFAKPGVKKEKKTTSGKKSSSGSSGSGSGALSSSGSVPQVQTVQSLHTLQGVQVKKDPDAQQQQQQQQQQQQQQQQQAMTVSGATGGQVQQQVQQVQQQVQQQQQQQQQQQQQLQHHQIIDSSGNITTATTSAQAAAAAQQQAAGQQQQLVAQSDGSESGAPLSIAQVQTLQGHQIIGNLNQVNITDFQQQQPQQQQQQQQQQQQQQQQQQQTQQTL

Data set [2] deals with brH (GCN4 basic region/AT-Hook conjugate) (UniProt P03069). Nature of the data set: fluorescence anisotropy. The settings on record: 20 C; 25 nM DNA; apparent; Anisotropy (given for GAGAH): 20 mM Tris-HCl pH 7.5, 100 mM NaCl, 0.02 mM ZnCl2, 20 C, 25 nM TMR-DNA; EMSA: 75 nM dsDNA, rt (GAGAH), 10% native PAGE, 0.5x TBE ….

In the case of “CGCGTCATAATTGAGAGCGC (double strand) [TMR-AP1hs·AT = TMR-AT·GAGA]”, the Kd in data set [1] (20 C, 25 nM DNA, apparent) is 26 nM; in data set [1] (excess calf thymus DNA competitor), 42 nM; in data set [2], 28 nM.
